Data: article PMC11154964, “The Light Chain Allosterically Enhances the Protease Activity of Murine Urokinase-Type Plasminogen Activator” (Biochemistry, 2024)
One block for each molecule: values may come before it. Ends that are not written are not given here.

How the values were obtained:
[1] = biological target: protease domain (heavy chain) of murine urokinase-type plasminogen activator (muPA WT, after plasmin cleavage) (mouse (murine)) (UniProt P06869)
[2] = biological target: T1, protease domain (heavy chain) of murine urokinase-type plasminogen activator (muPA WT, after plasmin cleavage) (mouse (murine), UniProt P06869 180-433, C281 (122CT) disulfide-bonded to C149 (1CT) of the light chain); assay: HDX-MS; two-chain muPA (light chain disulfide-bonded to the protease domain; WT 20 μM, F(−2)CTA 8.5 μM, K4CTG 13 μM) compared with No-Light-Chain muPA (10 μM); PBS pH 7.4, 22 °C, deuteration 0, 30, 60, 120, 600 s; conditions: both partners purified
T1 construct: Stood in the assay as one of the two chains of muPA WT or of its light-chain mutants; also called serine protease domain

[3] = biological target: T1, protease domain (heavy chain) of murine …; assay: cell-based or functional assay

T1 sequence (P06869 180-433): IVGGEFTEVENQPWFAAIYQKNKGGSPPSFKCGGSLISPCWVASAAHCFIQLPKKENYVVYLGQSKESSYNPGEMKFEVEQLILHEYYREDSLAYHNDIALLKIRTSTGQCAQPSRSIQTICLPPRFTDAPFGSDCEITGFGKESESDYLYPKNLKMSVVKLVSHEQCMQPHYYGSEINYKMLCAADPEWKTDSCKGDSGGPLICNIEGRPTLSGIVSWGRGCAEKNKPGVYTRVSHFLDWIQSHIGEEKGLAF
Chain of protease domain (heavy chain) of murine urokinase-type plasminogen activator (muPA WT, after plasmin cleavage) (mouse (murine)) (P06869 180-433): as above

kcat of the amidolytic activity (chromogenic substrate S2444) of two-chain muPA F(−2CT)A [1]: 12 s^–1
Molecule: light chain of muPA with the mutation F(−2CT)A (from UniProt P06869 153-179) (domain or fragment)

binding result [2]: binds
B1: disordered light chain of murine urokinase-type plasminogen activator (muPA WT, after plasmin cleavage) (domain or fragment, mouse (murine), UniProt P06869 153-179, looked up)
chain: SLSKKPSSSVDQQGFQCGQKALRPRFK
modifications: not fully specified; also: disulfide to Cys281 of the protease domain chain, disulfide at 17, other end not in the chain
notes: Stood in the assay as one of the two chains of muPA WT (133-413), tethered to m2 by a disulfide bond; The construct has an N-terminal 6xHis-tag and a TEV protease cleavage site; also called disordered linker; light chain of muPA WT

kcat of the amidolytic activity (chromogenic substrate S2444) of two-chain muPA K4CTG [3]: 22 s^–1
B2: light chain of muPA with the mutation K4CTG (domain or fragment, mouse (murine), UniProt P06869 153-179, looked up)
chain: SLSKKPSSSVDQQGFQCGQGALRPRFK
modifications: not fully specified; also: disulfide to Cys281 of the protease domain chain, disulfide at 17, other end not in the chain
